Laboratory results taken from US10502741B2, “Means and methods for detecting activated MALT1” (Helmholtz Zentrum München Deutsches Forschungszentrum für …, priority 2014, dated 2019).

Biological target: T1, active MALT1 (Homo sapiens, UniProt Q9UDY8)
T1 construct: endogenous in cells; host or cells: Jurkat T cells, primary human PBMCs and T cells, DLBCL cell lines (HBL1, TMD8, OCI-Ly3, OCI-Ly10, U2932, RIVA, BJAB, Su-DHL-4, Su-DHL-6)
T1 sequence (Q9UDY8 1-824): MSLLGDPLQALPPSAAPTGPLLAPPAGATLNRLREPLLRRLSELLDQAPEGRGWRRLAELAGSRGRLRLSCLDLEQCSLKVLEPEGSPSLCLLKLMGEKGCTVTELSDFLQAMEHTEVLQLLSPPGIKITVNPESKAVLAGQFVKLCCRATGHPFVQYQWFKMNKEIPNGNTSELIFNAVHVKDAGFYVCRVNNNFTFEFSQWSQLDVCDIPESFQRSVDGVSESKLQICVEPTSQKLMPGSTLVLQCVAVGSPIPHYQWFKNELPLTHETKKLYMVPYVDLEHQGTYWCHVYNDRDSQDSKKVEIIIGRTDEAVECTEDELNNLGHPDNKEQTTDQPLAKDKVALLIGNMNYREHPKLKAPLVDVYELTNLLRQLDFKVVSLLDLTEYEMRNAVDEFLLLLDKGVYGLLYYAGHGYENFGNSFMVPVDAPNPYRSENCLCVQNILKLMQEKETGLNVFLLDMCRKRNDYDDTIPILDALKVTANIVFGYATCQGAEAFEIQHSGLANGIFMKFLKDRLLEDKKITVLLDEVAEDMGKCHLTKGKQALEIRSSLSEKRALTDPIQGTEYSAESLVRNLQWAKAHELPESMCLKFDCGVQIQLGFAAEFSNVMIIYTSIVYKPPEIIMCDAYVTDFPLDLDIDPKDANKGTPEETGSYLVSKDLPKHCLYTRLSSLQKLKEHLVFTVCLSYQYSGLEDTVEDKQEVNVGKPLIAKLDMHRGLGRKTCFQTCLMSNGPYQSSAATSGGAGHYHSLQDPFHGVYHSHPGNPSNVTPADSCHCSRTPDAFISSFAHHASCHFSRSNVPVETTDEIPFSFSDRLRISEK
Test: MALT1 ELASA in cryo-preserved patient DLBCL tumor samples
Details: 0.25 μM on lysed tumor tissue
Procedure: FIG. 10: A) Active MALT1 detection in cryo-preserved patient tumor samples. Frozen tumor tissue was lysed with a douncer and syringe, incubated with z-VRPR-FMK (0.25 μM) (SEQ ID No. 6) or left untreated before MALT1 activity read-out as above. Relative MALT1 activity from each untreated and z-VRPR-FMK (SEQ ID No. 6) treated samples was measured and directly compared (ABC DLBCL n=8; GCB DLBCL n=7). Significance for MALT1 activity in untreated to z-VRPR-FMK (SEQ ID No. 6) treated samples was calculated by a two-tailed t-test (**<0.005). B) Oncogenic CARMA1 is sufficient to trigger MALT1 activation. BJAB transduced with CARMA1 WT or L244P (ABC derived) or L225PI (GCB derived) were lysed and treated with z-VRPR-FMK (SEQ ID No. 6) and analyzed as above. Results and SD from three independent experiments are shown. MALT1 activity is depicted as arbitrary units [AU].
Untreated DLBCL (1×10^7), primary T cells (0.25×10^7) or Jurkat T cells (0.2-1×10^7) (stimulated or not) were lysed in 300 μl co-IP buffer without protease inhibitors, centrifuged, incubated with probe 7 (concentration as depicted) for 1 h at RT, then transferred to streptavidin-coated plates (96 well, clear) and incubated o/n at 4° C. […] was determined after TMB substrate incubation in a photometer (Bio-Tek). […]

samples with reduction in MALT1 activity, GCB DLBCL (7 GCB DLBCL biopsies): one out of seven
samples with reduction in MALT1 activity, ABC DLBCL (8 ABC DLBCL biopsies): five out of eight
Substance: z-VRPR-FMK (Z N-terminal cap, FMK warhead)
